We go through two molecules from patent EP2025757A2.

Experiment [1] concerns the target serpin enzyme complex receptor (SEC-R) on human hepatoma cell lines (human). Description: fluorescence microscopy of HepG2(high) cells with 100 nM fluorescein labeled peptide at 4 C; cells per 100 counted.
Experiment [2] has the same target. Description: fluorescence microscopy of HepG2(low) cells with 100 nM fluorescein labeled peptide at 4 C; cells per 100 counted.
Experiment [3] has the same target. Description: fluorescence microscopy of HuH7 cells with 100 nM fluorescein labeled peptide at 4 C; cells per 100 counted.
Experiment [4] shares this target. Briefly: 125I-C105Y saturation binding on HepG2 (low) cells, Scatchard analysis.
Experiment [5] shares this target. Briefly: 125I-C105Y saturation binding on HuH7 cells, Scatchard analysis.
Experiment [6] shares this target. Briefly: 125I-C105Y specific binding on cells.
For experiment [7] the target is unchanged. Description: 125I-C105Y saturation binding on HepG2 (high) cells, Scatchard analysis.

Ends that are not written are not given here.

Turning to CFLEAIPMSIPPEVKFNKPFVFLIIHRD (also: labelled with fluorescein isothiocyanate, site not given here) [fluorescein labeled C1315 peptide], the Average % Fluorescent Cells stood at 20.4% in experiment [1], 1.8% in experiment [2] and 14.3% in experiment [3].

The molecule CSIPPEVKFNKPFVYLI (also: radio-iodinated with 125I, site not given here) [Peptide C105Y] returned a Kd in experiment [4] of 22.5 nM. In addition, the dissociation constant (Kd) in experiment [5] was 70 nM. In experiment [6], this molecule returned a fold less specific binding, HepG2 (low) against HepG2 (high) of 7.5 fold; a fold less specific binding, HepG2 (low) against HuH7 of 10 fold; a fold more C105Y bound, HuH7 against HepG2 (high) of 1.5 fold. The molecule also yielded a Kd in experiment [7] of 50 nM.
